# Reference: US20250257368A1 (FLAGSHIP PIONEERING INNOVATIONS V, published 2025)
# B1: Ring2 ORF1 protein expressed as a full-length protein in insect cells (other)
# chain: MPYYYRRRRYNYRRPRWYGRGWIRRPFRRRFRRKRRVRPTYTTIPLKQWQPPYKRTCYIKGQDCLIYYSNLRLGMNSTMYEKSIVPVHWPGGGSFSVSMLTLDALYDIHKLCRNWWTSTNQDLPLVRYKGCKITFYQSTFTDYIVRIHTELPANSNKLTYPNTHPLMMMMSKYKHIIPSRQTRRKKKPYTKIFVKPPPQFENKWYFATDLYKIPLLQIHCTACNLQNPFVKPDKLSNNVTLWSLNTISIQNRNMSVDQGQSWPFKILGTQSFYFYFYTGANLPGDTTQIPVADLLPLTNPRINRPGQSLNEAKITDHITFTEYKNKFTNYWGNPFNKHIQEHLDMILYSLKSPEAIKNEWTTENMKWNQLNNAGTMALTPFNEPIFTQIQYNPDRDTGEDTQLYLLSNATGTGWDPPGIPELILEGFPLWLIYWGFADFQKNLKKVTNIDTNYMLVAKTKFTQKPGTFYLVILNDTFVEGNSPYEKQPLPEDNIKWYPQVQYQLEAQNKLLQTGPFTPNIQGQLSDNISMFYKFYFKWGGSPPKAINVENPAHQIQYPIPRNEHETTSLQSPGEAPESILYSFDYRHGNYTTTALSRISQDWALKDTVSKITEPDRQQLLKQALECLQISEETQEKKEKEVQQLISNLRQQQQLYRERIISLLKDQ
# notes: also called Anellovirus ORF1 protein
# Biological target: the molecule itself
# Assay: self-assembly into virus-like particles, negative staining electron microscopy
protein,measurement,value
B1,binding result,binds
